B1: SMTNL2 (parent)
chain: AFTMAENLANCERLIEVEDMMVMG
B2: TBC1D10A (parent)
chain: WCLVQICEKYLPGYYSEKLEAIQL

Variants of: B1
Test: protein stability index of a GFP-peptide fusion (GPS, HEK-293T) (PSI 1-6); higher = more stable
Conditions: c terminus: a fixed tail appended
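Note: lentivirally expressed fusions sorted by FACS into six bins by GFP to DsRed ratio, PSI derived from sequencing read proportions per bin multiplied by bin number.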

Variant | protein stability index
YFTMAENLANCERLIEVEDMMVMG [A1Y] | 2.2
CFTMAENLANCERLIEVEDMMVMG [A1C] | 1.74
QFTMAENLANCERLIEVEDMMVMG [A1Q] | 3.22
EFTMAENLANCERLIEVEDMMVMG [A1E] | 2.1
NFTMAENLANCERLIEVEDMMVMG [A1N] | 2.44
LFTMAENLANCERLIEVEDMMVMG [A1L] | 1.75
IFTMAENLANCERLIEVEDMMVMG [A1I] | 1.76
HFTMAENLANCERLIEVEDMMVMG [A1H] | 2.62
WFTMAENLANCERLIEVEDMMVMG [A1W] | 1.86
FFTMAENLANCERLIEVEDMMVMG [A1F] | 1.86
VFTMAENLANCERLIEVEDMMVMG [A1V] | 2.06
KFTMAENLANCERLIEVEDMMVMG [A1K] | 2.58
DFTMAENLANCERLIEVEDMMVMG [A1D] | 2.47
MFTMAENLANCERLIEVEDMMVMG [A1M] | 1.61
RFTMAENLANCERLIEVEDMMVMG [A1R] | 2.84
TFTMAENLANCERLIEVEDMMVMG [A1T] | 1.81
PFTMAENLANCERLIEVEDMMVMG [A1P] | 3.16
SFTMAENLANCERLIEVEDMMVMG [A1S] | 2.46
GFTMAENLANCERLIEVEDMMVMG [A1G] | 1.74

Variant | protein stability index
ASTMAENLANCERLIEVEDMMVMG [F2S] | 3.49
AITMAENLANCERLIEVEDMMVMG [F2I] | 2.27
AKTMAENLANCERLIEVEDMMVMG [F2K] | 3.5
ATTMAENLANCERLIEVEDMMVMG [F2T] | 3.88
AVTMAENLANCERLIEVEDMMVMG [F2V] | 3.18
ALTMAENLANCERLIEVEDMMVMG [F2L] | 2.27
ANTMAENLANCERLIEVEDMMVMG [F2N] | 3.95
ADTMAENLANCERLIEVEDMMVMG [F2D] | 4.48
AHTMAENLANCERLIEVEDMMVMG [F2H] | 3.48
AWTMAENLANCERLIEVEDMMVMG [F2W] | 2.07
AETMAENLANCERLIEVEDMMVMG [F2E] | 4.17
APTMAENLANCERLIEVEDMMVMG [F2P] | 4.28
AGTMAENLANCERLIEVEDMMVMG [F2G] | 4
AATMAENLANCERLIEVEDMMVMG [F2A] | 3.7
AYTMAENLANCERLIEVEDMMVMG [F2Y] | 2.22
ARTMAENLANCERLIEVEDMMVMG [F2R] | 2.4
AMTMAENLANCERLIEVEDMMVMG [F2M] | 2.08
ACTMAENLANCERLIEVEDMMVMG [F2C] | 3.14
AQTMAENLANCERLIEVEDMMVMG [F2Q] | 3.22

Variant | protein stability index
AFRMAENLANCERLIEVEDMMVMG [T3R] | 2.11
AFAMAENLANCERLIEVEDMMVMG [T3A] | 2.06
AFDMAENLANCERLIEVEDMMVMG [T3D] | 2.85
AFMMAENLANCERLIEVEDMMVMG [T3M] | 1.96
AFFMAENLANCERLIEVEDMMVMG [T3F] | 1.71
AFIMAENLANCERLIEVEDMMVMG [T3I] | 1.72
AFSMAENLANCERLIEVEDMMVMG [T3S] | 2.12
AFPMAENLANCERLIEVEDMMVMG [T3P] | 3.15
AFQMAENLANCERLIEVEDMMVMG [T3Q] | 2.13
AFHMAENLANCERLIEVEDMMVMG [T3H] | 2.24
AFGMAENLANCERLIEVEDMMVMG [T3G] | 2.91
AFYMAENLANCERLIEVEDMMVMG [T3Y] | 2.06
AFNMAENLANCERLIEVEDMMVMG [T3N] | 2.42
AFCMAENLANCERLIEVEDMMVMG [T3C] | 1.85
AFVMAENLANCERLIEVEDMMVMG [T3V] | 1.79
AFWMAENLANCERLIEVEDMMVMG [T3W] | 1.74
AFLMAENLANCERLIEVEDMMVMG [T3L] | 1.77
AFEMAENLANCERLIEVEDMMVMG [T3E] | 2.15
AFKMAENLANCERLIEVEDMMVMG [T3K] | 2.03

Variants of: B2
Test: as above
Conditions: c terminus: a fixed tail appended

Variant | protein stability index
WCLVQICEKYLPGYYSEKLEAIEL [Q23E] | 2.44
WCLVQICEKYLPGYYSEKLEAIVL [Q23V] | 2.11
WCLVQICEKYLPGYYSEKLEAINL [Q23N] | 3.14
WCLVQICEKYLPGYYSEKLEAISL [Q23S] | 3.29
WCLVQICEKYLPGYYSEKLEAIFL [Q23F] | 3.75
WCLVQICEKYLPGYYSEKLEAIWL [Q23W] | 2.58
WCLVQICEKYLPGYYSEKLEAIAL [Q23A] | 4.11
WCLVQICEKYLPGYYSEKLEAIML [Q23M] | 2.93
WCLVQICEKYLPGYYSEKLEAIHL [Q23H] | 2.13
WCLVQICEKYLPGYYSEKLEAIPL [Q23P] | 1.64
WCLVQICEKYLPGYYSEKLEAIIL [Q23I] | 3.3
WCLVQICEKYLPGYYSEKLEAIKL [Q23K] | 2.75
WCLVQICEKYLPGYYSEKLEAIRL [Q23R] | 2.52
WCLVQICEKYLPGYYSEKLEAITL [Q23T] | 5.09
WCLVQICEKYLPGYYEEKLEAIQL [S16E] | 4.03
WCLVQICEKYLPGYYYEKLEAIQL [S16Y] | 2.7
WCLVQICEKYLPGYYWEKLEAIQL [S16W] | 3.94
WCLVQICEKYLPGYYDEKLEAIQL [S16D] | 2.24
WCLVQICEKYLPGYYPEKLEAIQL [S16P] | 2.1

Variant | protein stability index
WCLVQICEKYLPGYYHEKLEAIQL [S16H] | 1.6
WCLVQICEKYLNGYYSEKLEAIQL [P12N] | 4.27
WCLVQICEKYLKGYYSEKLEAIQL [P12K] | 2.12
WCLVQICEKYLTGYYSEKLEAIQL [P12T] | 1.62
WCLVQICEKYLIGYYSEKLEAIQL [P12I] | 2.32
WCLVQICEKYLYGYYSEKLEAIQL [P12Y] | 2.66
WCLVQICEKYLSGYYSEKLEAIQL [P12S] | 3.84
WCLVQICEKYLMGYYSEKLEAIQL [P12M] | 1.77
WCLVQICEKYLWGYYSEKLEAIQL [P12W] | 2.32
WCLVQICEKYLPGYYSEKPEAIQL [L19P] | 1.99
WCLVQICEKYLPGYYSEKQEAIQL [L19Q] | 3.88
WCLVQICEKYLPGYYSEKEEAIQL [L19E] | 4.16
WCLVQICEKYLPGYYSEKNEAIQL [L19N] | 3.63
WCLVQICEKYLPGYYSEKVEAIQL [L19V] | 2.92
WCLVQICEKYLPGYYSEKCEAIQL [L19C] | 4.85
WCLVQICEKYDPGYYSEKLEAIQL [L11D] | 2.91
WCLVQICEKYCPGYYSEKLEAIQL [L11C] | 2.72
WCLVQICEKYSPGYYSEKLEAIQL [L11S] | 2.68

From the supplement of paper PMC10567573
